Measurements published in US20200109196A1 (MOGAM INSTITUTE FOR BIOMEDICAL RESEARCH, published 2020).

Legend:
BSA = molecular target: T1, BSA (bovine, UniProt P02769); experiment: ELISA on coated antigen (0.25 µg/ml), HRP anti-human IgG Fc, OD450
T1 construct: blank antigen; also called BSA protein; bovine serum albumin
Source text: (§1) All of the recombinant human CEACAM-1/CD66a protein (R&D systems; Cat No. 2244-CM, HCCM1), recombinant human CEACAM-5/CD66e protein (R&D systems; Cat. No. 4128-CM, HCCM5), recombinant human CEACAM-6/CD66c protein (R&D systems; Cat. No. 3934-CM, HCCM6), recombinant human CEACAM-3/CD66d protein (Sino Biological; Cat. No. 11933-H08H, HCCM3), human B7-H5/Gi24/VISTA protein (Sino Biological; Cat. No. 13482-H08H, HVISTA), recombinant human CEACAM-1/CD66a protein Bulk (R&D systems; Cat. No. 2244-CM, HCCM1 (bulk)), recombinant human CEACAM1-N domain-Kappa protein (Mogam, in-house production, HCCM1-N domain-kappa), and BSA protein (2.5 μg each) were dissolved in 10 ml of PBS, respectively, and dispensed into a 96-well plate at 100 μl/well, which was incubated at 4° C. overnight. Thereafter, each well was treated with 300 μl of 1% (v/v) bovine serum albumin, and incubated at 37° C. for 1 hour.
(§2) The diluted antibodies were dispensed into each well coated with each protein at 100 μl/well, and incubated at 37° C. for 1 hour. Then, each well was washed 3 times with a washing buffer prepared by diluting 10 μl of Tween 20 (Sigma-Aldrich; Cat. No. P9146) in 990 μl of PBS. Thereafter, 2 μl of HRP-conjugated human anti-IgG-Fc antibody (anti-human IgG Fc, Sigma Cat. No. A0170) was diluted in 10 ml of PBS, added to the wells at 100 μl/well, and incubated for 1 hour.
(§3) After completion of the reaction, the wells were washed three times with the washing buffer, and 100 μl of TMB solution was added to each well to induce color development. Then, 100 μl of 2 M H₂SO₄ was added to each well to stop the reaction, and the absorbance was measured at a wavelength of 450 nm.

HVISTA = molecular target: T2, HVISTA; experiment: as above
T2 construct: unrelated control antigen; also called human B7-H5/Gi24/VISTA protein (Sino Biological; Cat. No. 13482-H08H); not shown: the vendor's polyhistidine tag
T2 sequence (chain, as listed by the source limits assumed): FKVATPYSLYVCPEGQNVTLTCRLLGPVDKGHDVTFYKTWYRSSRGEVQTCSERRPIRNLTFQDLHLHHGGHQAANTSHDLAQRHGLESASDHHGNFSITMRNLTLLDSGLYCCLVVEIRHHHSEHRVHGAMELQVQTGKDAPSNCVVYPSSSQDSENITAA
Source text: as §1, §2, §3

mCCM1 = molecular target: T3, mCCM1; experiment: ELISA on coated antigen (0.25 µg/ml), HRP anti-human IgG Fab, OD450
T3 construct: also called mouse CCM1; mouse CEACAM1/CD66a protein (Sino Biological); not shown: the vendor's polyhistidine tag
T3 chain: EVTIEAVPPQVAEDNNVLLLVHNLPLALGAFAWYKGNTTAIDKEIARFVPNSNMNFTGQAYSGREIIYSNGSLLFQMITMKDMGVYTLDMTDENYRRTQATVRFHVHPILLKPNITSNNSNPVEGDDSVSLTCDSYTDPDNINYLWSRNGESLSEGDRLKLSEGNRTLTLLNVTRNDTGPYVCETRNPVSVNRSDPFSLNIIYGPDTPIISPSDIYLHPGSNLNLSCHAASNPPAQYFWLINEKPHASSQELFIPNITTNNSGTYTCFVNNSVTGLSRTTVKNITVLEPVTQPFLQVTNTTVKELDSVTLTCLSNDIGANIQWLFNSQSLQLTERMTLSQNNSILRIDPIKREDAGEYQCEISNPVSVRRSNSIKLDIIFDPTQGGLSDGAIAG
Source text: (§4) All of the recombinant human CEACAM-1/CD66a protein (R&D systems; Cat. No. 2244-CM, HCCM1), recombinant human CEACAM-5/CD66e protein (R&D systems; Cat. No. 4128-CM, HCCM5), recombinant human CEACAM-6/CD66c protein (R&D systems; Cat. No. 3934-CM, HCCM6), recombinant human CEACAM-3/CD66d protein (Sino Biological; Cat. No. 11933-H08H, HCCM3), recombinant mouse PD-1 Fc chimeric protein (R&D systems; Cat. No. 1021-PD, mPD-1-Fc), recombinant CEACAM1-Fc (IgG4) protein (Mogam, in-house production, HCCM1-Fc), recombinant human CEACAM-1/CD66a protein Bulk (R&D systems; Cat. No. 2244-CM, HCCM1 (bulk)) and mouse CEACAM1/CD66a protein (Sino Biological; Cat. No. 50571-M08H, mouse CCM1) (2.5 μg each) were dissolved in 10 ml of PBS, respectively and dispensed into a 96-well plate (Nunc; Cat. No. 467679) at 100 μl/well, which was incubated overnight at 4° C. Thereafter, each well was treated with 300 μl of 1% (v/v) bovine serum albumin, which was incubated at 37° C. for 1 hour.
(§5) The diluted antibodies were dispensed into each well coated with each protein at 100 μl/well, which was incubated at 37° C. for 1 hour. Then, each well was washed 3 times with a washing buffer prepared by diluting 10 μl of Tween 20 (Sigma-Aldrich; Cat. No. P9146) in 990 μl of PBS. Thereafter, 2 μl of HRP-conjugated human anti-IgG-Fab antibody (anti-human IgG Fab; Sigma; Cat. No. A0293) was diluted in 10 ml of PBS, added to the wells at 100 μl/well, and incubated for 1 hour.
as §3

[1] = molecular target: T4, recombinant human CEACAM-6/CD66c protein (R&D systems; Cat. No. 3934-CM) (human, UniProt P40199 35-320); experiment: as above
T4 construct: Bought protein; also called HCCM6
T4 sequence (looked up): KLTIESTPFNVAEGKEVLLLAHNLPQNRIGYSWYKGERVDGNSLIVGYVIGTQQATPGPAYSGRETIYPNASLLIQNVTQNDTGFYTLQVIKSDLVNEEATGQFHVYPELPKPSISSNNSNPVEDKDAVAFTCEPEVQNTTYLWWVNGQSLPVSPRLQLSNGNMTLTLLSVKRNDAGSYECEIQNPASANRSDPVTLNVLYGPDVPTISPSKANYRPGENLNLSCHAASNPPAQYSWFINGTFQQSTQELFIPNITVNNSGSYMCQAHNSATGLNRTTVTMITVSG
Source text: as §4, §5, §3

T1 sequence (P02769 25-607 limits assumed): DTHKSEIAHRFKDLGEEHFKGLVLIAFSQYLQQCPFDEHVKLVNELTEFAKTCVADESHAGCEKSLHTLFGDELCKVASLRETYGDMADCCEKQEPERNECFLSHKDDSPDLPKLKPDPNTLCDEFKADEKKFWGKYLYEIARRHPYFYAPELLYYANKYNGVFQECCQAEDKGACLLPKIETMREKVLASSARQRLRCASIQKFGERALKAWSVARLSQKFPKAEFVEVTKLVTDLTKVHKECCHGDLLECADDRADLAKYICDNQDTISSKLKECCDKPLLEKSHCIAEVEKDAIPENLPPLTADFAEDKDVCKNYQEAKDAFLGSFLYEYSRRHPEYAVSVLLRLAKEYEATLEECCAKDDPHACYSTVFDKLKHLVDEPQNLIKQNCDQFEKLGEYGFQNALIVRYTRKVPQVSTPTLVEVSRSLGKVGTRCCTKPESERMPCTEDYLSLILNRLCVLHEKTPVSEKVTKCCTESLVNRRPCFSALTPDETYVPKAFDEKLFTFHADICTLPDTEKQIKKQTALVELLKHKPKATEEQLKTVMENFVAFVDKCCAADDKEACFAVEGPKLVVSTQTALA

Row | Binder | binding result (BSA) | binding result (HVISTA) | binding result (mCCM1) | binding result [1]
1 | C18 (antibody, human IgG4 S228P, lambda, V domains shown) VH: EVQLLESGGGLVQPGGSLRLSCAASGFTFSNYDMSWVRQAPGKGLEWVSGISHSSGSKYYADSVKGRFTISRDNSKNTLYLQMNSLRAEDTAVYYCARDPLPCLIPKCSYYYAMDVWGQGTLVTVSS VL: QSVLTQPPSAPGTPGQRVTISCSGSSSNIGSNAVTWYQQLPGTAPKLLIYADSHRPSGVPDRFSGSKSGTSASLAISGLRSEDEADYYCGSWDDSLNAYVFGGGTKLTVLG | no binding (tested: 3 µg/ml (single concentration)) | no binding (tested: 3 µg/ml (single concentration)) | no binding (tested: 3 µg/ml (single concentration)) | no binding (tested: 3 µg/ml (single concentration))
2 | C26 (antibody, human IgG4 S228P, lambda, V domains shown) VH: EVQLLESGGGLVQPGGSLRLSCAASGFTFSGYDMSWVRQAPGKGLEWVSWISYGGGSIYYADSVKGRFTISRDNSKNTLYLQMNSLRAEDTAVYYCAKDRLPQKAVRHSYANGMDVWGQGTLVTVSS VL: QSVLTQPPSASGTPGQRVTISCSGSSSNIGNNYVTWYQQLPGTAPKLLIYADSHRPSGVPDRFSGSKSGTSASLAISGLRSEDEADYYCGAWDYSLSGYVFGGGTKLTVLG | no binding (tested: 3 µg/ml (single concentration)) | no binding (tested: 3 µg/ml (single concentration)) | no binding (tested: 3 µg/ml (single concentration)) | no binding (tested: 3 µg/ml (single concentration))
3 | C17 (antibody, human IgG4 S228P, lambda, V domains shown) VH: EVQLLESGGGLVQPGGSLRLSCAASGFTFSDYSMSWVRQAPGKGLEWVSVIYPDDGNTYYADSVKGRFTISRDNSKNTLYLQMNSLRAEDTAVYYCARGSIWWLSLIPSSYNAMDVWGQGTLVAVSS VL: QSVLTQPPSASGTPGQRVTISCSGSSSNIGNNAVNWYQQLPGTAPKLLIYANSHRPSGVPDRFSGSKSGTSASLAISGLRSEDEADYYCGAWDASLNGYVFGGGTKLTVLG | no binding (tested: 3 µg/ml (single concentration)) | no binding (tested: 3 µg/ml (single concentration)) | no binding (tested: 3 µg/ml (single concentration)) | no binding (tested: 3 µg/ml (single concentration))
4 | C25 (antibody, human IgG4 S228P, lambda, V domains shown, Made in ExpiHEK293F cells, protein A purified. huIgG4 is the isotype control and anti-huIgG4 the detection reagent; the isotype is not otherwise stated; also called anti-CEACAM1 antibody C25) VH: EVQLLESGGGLVQPGGSLRLSCAASGFTFSNYAMSWVRQAPGKGLEWVSVISHGGGSIYYADSVKGRLTISRDNSKNTLYLQMNSLRAEDTAVYYCARDPTKGYAPTFDYWGQGTLVTVSS VL: QSVLTQPPSASGTPGQRVTISCSGSSSNIGNNYVSWYQQLPGTAPKLLIYADSKRPSGVPDRFSGSKSGTSASLAISGLRSEDEADYYCGAWDASLNGYVFGGGTKLTVLG | no binding (tested: 3 µg/ml (single concentration)) | no binding (tested: 3 µg/ml (single concentration)) | no binding (tested: 3 µg/ml (single concentration)) | no binding (tested: 3 µg/ml (single concentration))
5 | C22 (antibody, human IgG4 S228P, lambda, V domains shown) VH: EVQLLESGGGLVQPGGSLRLSCAASGFTFSDYDMSWVRQAPGKGLEWVSMIYSGSSSKYYADSVKGRFTISRDNSKNTLYLQMNSLRAEDTAVYYCAKAPLPFYFRPKSYYYAMDVWGQGTLVTVSS VL: QSVLTQPPSASGTPGQRVTISCSGSSSNIGSNNVTWYQQLPGTAPKLLIYANSHRPSGVPDRFSGSKSGTSASLAISGLRSEDEADYYCGSWDSSLNAYVFGGGTKLTVLG | no binding (tested: 3 µg/ml (single concentration)) | no binding (tested: 3 µg/ml (single concentration)) | no binding (tested: 3 µg/ml (single concentration)) | no binding (tested: 3 µg/ml (single concentration))
6 | C15 (antibody, human IgG4 S228P, lambda, V domains shown) VH: EVQLLESGGGLVQPGGSLRLSCAASGFTFSSYSMSWVRQAPGKGLEWVSSISPNGGNKYYADSVKGRFTISRDNSKNTLYLQMNSLGAEDTAVYYCAKDPYNIYQPLFDYWGQGTLVTVSS VL: QSVLTQPLSASGTPGQRVTISCSGSSSNIGNNYVNWYQQLPGTAPKLLIYANSNRPSGVPDRFSGSKSGTSASLAISGLRSEEEADYYCGTWDASLSAYVFGGGTKLTVLG | no binding (tested: 3 µg/ml (single concentration)) | no binding (tested: 3 µg/ml (single concentration)) | no binding (tested: 3 µg/ml (single concentration)) | no binding (tested: 3 µg/ml (single concentration))
7 | C19 (antibody, human IgG4 S228P, lambda, V domains shown) VH: EVQLLESGGGLVQPGGSLRLSCAASGFTFSGYAMSWVRQAPGKGLEWVSGIYHDGGSTYYADSVKGRFTISRDNSKNTLYLQMNSLRAEDTAVYYCARVTVLCTTYGCSSYDGMDVWGQGTLVTVSS VL: not shown | no binding (tested: 3 µg/ml (single concentration)) | no binding (tested: 3 µg/ml (single concentration)) | no binding (tested: 3 µg/ml (single concentration)) | no binding (tested: 3 µg/ml (single concentration))
